Data from patent publication US20160264649A1.

What was measured:
Assay in all cases: cell-based or functional assay
[1] = target: HIV-1 Env of isolate 92TH021 (subtype AE) (HIV-1)
[2] = target: HIV-1 Env of isolate 92UG031 (subtype A) (HIV-1)
[3] = target: HIV-1 Env of isolate 92UG037 (subtype A) (HIV-1)
[4] = target: HIV-1 Env of isolate 92UG114 (subtype D) (HIV-1)
[5] = target: HIV-1 Env of isolate 92WR009 (subtype A) (HIV-1)
[6] = target: HIV-1 Env of isolate 92WR020 (subtype A) (HIV-1)
[7] = target: HIV-1 Env of isolate 92WR021 (subtype A) (HIV-1)
[8] = target: HIV-1 Env of isolate 92WR024 (subtype A) (HIV-1)
[9] = target: HIV-1 Env of isolate 92WR026 (subtype A) (HIV-1)
[10] = target: HIV-1 Env of isolate 93UG077 (subtype A) (HIV-1)
[11] = target: HIV-1 Env of isolate 93WR029 (subtype A) (HIV-1)
[12] = target: HIV-1 Env of isolate 94 KE 105 (subtype AC) (HIV-1)
[13] = target: HIV-1 Env of isolate 94UG103 (subtype A) (HIV-1)
[14] = target: HIV-1 Env of isolate CMU02 (subtype AE) (HIV-1)
[15] = target: HIV-1 Env of isolate MGRM-AE-001 (subtype AE) (HIV-1)
[16] = target: HIV-1 Env of isolate MGRM-AE-002 (subtype AE) (HIV-1)
[17] = target: HIV-1 Env of isolate MGRM-AE-003 (subtype AE) (HIV-1)
[18] = target: HIV-1 Env of isolate MGRM-AE-004 (subtype AE) (HIV-1)
[19] = target: HIV-1 Env of isolate MGRM-AE-005 (subtype AE) (HIV-1)
[20] = target: HIV-1 Env of isolate MGRM-AE-006 (subtype AE) (HIV-1)
[21] = target: HIV-1 Env of isolate MGRM-AE-007 (subtype AE) (HIV-1)
[22] = target: HIV-1 Env of isolate MGRM-AE-008 (subtype AE) (HIV-1)
[23] = target: HIV-1 Env of isolate MGRM-D-001 (subtype D) (HIV-1)
[24] = target: HIV-1 Env of isolate MGRM-D-002 (subtype D) (HIV-1)
[25] = target: HIV-1 Env of isolate MGRM-D-003 (subtype D) (HIV-1)
[26] = target: HIV-1 Env of isolate MGRM-D-004 (subtype D) (HIV-1)
[27] = target: HIV-1 Env of isolate MGRM-D-005 (subtype D) (HIV-1)
[28] = target: HIV-1 Env of isolate MGRM-D-008 (subtype D) (HIV-1)
[29] = target: HIV-1 Env of isolate MGRM-D-011 (subtype D) (HIV-1)
[30] = target: HIV-1 Env of isolate MGRM-D-012 (subtype D) (HIV-1)
[31] = target: HIV-1 Env of isolate MGRM-D-013 (subtype D) (HIV-1)
[32] = target: HIV-1 Env of isolate MGRM-D-014 (subtype D) (HIV-1)
[33] = target: HIV-1 Env of isolate MGRM-D-016 (subtype D) (HIV-1)
[34] = target: HIV-1 Env of isolate MGRM-D-018 (subtype D) (HIV-1)
[35] = target: HIV-1 Env of isolate MGRM-D-019 (subtype D) (HIV-1)
[36] = target: HIV-1 Env of isolate MGRM-D-020 (subtype D) (HIV-1)
[37] = target: HIV-1 Env of isolate MGRM-D-021 (subtype D) (HIV-1)
[38] = target: HIV-1 Env of isolate MGRM-D-022 (subtype D) (HIV-1)
[39] = target: HIV-1 Env of isolate MGRM-D-024 (subtype D) (HIV-1)
[40] = target: HIV-1 Env of isolate MGRM-D-026 (subtype D) (HIV-1)
[41] = target: HIV-1 Env of isolate MGRM-D-028 (subtype D) (HIV-1)
[42] = target: HIV-1 Env of isolate MGRM-D-029 (subtype D) (HIV-1)
[43] = target: HIV-1 Env of isolate MGRM-F1-004 (subtype F) (HIV-1)
[44] = target: HIV-1 Env of isolate MGRM-F1-006 (subtype F) (HIV-1)
[45] = target: HIV-1 Env of isolate MGRM-F1-008 (subtype F) (HIV-1)
[46] = target: HIV-1 Env of isolate MGRM-F1-010 (subtype F) (HIV-1)
[47] = target: HIV-1 Env of isolate MGRM-F1-012 (subtype F) (HIV-1)
[48] = target: HIV-1 Env of isolate MGRM-F1-013 (subtype F) (HIV-1)
[49] = target: HIV-1 Env of isolate MGRM-F1-014 (subtype F) (HIV-1)
[50] = target: HIV-1 Env of isolate MGRM-F1-015 (subtype F) (HIV-1)
[51] = target: HIV-1 Env of isolate MGRM-F1-016 (subtype F) (HIV-1)
[52] = target: HIV-1 Env of isolate MGRM-F1-017 (subtype F) (HIV-1)
[53] = target: HIV-1 Env of isolate MGRM-F1-018 (subtype F) (HIV-1)
[54] = target: HIV-1 Env of isolate MGRM-F1-020 (subtype F) (HIV-1)
[55] = target: HIV-1 Env of isolate MGRM-F1-021 (subtype F) (HIV-1)
[56] = target: HIV-1 Env of isolate MGRM-F1-022 (subtype F) (HIV-1)
[57] = target: HIV-1 Env of isolate MGRM-F1-023 (subtype F) (HIV-1)
[58] = target: HIV-1 Env of isolate VLGCA1 (subtype A) (HIV-1)

Sequence of PGT-142 (4995_E20) (antibody) (VH): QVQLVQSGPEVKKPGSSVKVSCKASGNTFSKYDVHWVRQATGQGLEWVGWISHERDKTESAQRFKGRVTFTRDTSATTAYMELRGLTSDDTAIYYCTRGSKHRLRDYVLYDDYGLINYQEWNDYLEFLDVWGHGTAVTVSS
Sequence of PGT-142 (4995_E20) (antibody) (VL): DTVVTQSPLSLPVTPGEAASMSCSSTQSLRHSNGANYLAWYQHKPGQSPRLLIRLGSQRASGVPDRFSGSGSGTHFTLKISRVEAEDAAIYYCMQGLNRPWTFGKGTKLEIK
Sequence of PGT-145 (4995_P16) (antibody) (VH): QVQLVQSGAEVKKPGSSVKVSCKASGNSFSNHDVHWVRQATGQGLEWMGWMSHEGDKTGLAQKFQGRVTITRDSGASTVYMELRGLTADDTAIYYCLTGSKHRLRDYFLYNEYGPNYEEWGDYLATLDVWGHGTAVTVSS
Sequence of PGT-145 (4995_P16) (antibody) (VL): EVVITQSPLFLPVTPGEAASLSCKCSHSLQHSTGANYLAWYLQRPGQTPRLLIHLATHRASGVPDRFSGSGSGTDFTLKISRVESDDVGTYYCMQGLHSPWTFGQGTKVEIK

PGT-145 (4995_P16) (antibody)
IC50 (pseudovirus neutralization) [1]: 0.013 µg/mL | IC50 (pseudovirus neutralization) [2]: 3.22 µg/mL | IC50 (pseudovirus neutralization) [3]: 3.15 µg/mL | IC50 (pseudovirus neutralization) [4]: 20.1 µg/mL | IC50 (pseudovirus neutralization) [5]: 0.026 µg/mL | IC50 (pseudovirus neutralization) [6]: 0.997 µg/mL | IC50 (pseudovirus neutralization) [7]: 1.62 µg/mL | IC50 (pseudovirus neutralization) [8]: 0.069 µg/mL | IC50 (pseudovirus neutralization) [9]: 1.45 µg/mL | IC50 (pseudovirus neutralization) [10]: > 50 µg/mL | IC50 (pseudovirus neutralization) [11]: > 50 µg/mL | IC50 (pseudovirus neutralization) [12]: 1.32 µg/mL | IC50 (pseudovirus neutralization) [13]: 0.331 µg/mL | IC50 (pseudovirus neutralization) [14]: 1.43 µg/mL | IC50 (pseudovirus neutralization) [15]: 20.9 µg/mL | IC50 (pseudovirus neutralization) [16]: 1.87 µg/mL | IC50 (pseudovirus neutralization) [17]: 0.552 µg/mL | IC50 (pseudovirus neutralization) [18]: 0.006 µg/mL | IC50 (pseudovirus neutralization) [19]: 0.967 µg/mL | IC50 (pseudovirus neutralization) [20]: > 50 µg/mL | IC50 (pseudovirus neutralization) [21]: 0.181 µg/mL | IC50 (pseudovirus neutralization) [22]: 1.46 µg/mL | IC50 (pseudovirus neutralization) [23]: 0.56 µg/mL | IC50 (pseudovirus neutralization) [24]: > 50 µg/mL | IC50 (pseudovirus neutralization) [25]: 0.006 µg/mL | IC50 (pseudovirus neutralization) [26]: 10.9 µg/mL | IC50 (pseudovirus neutralization) [27]: 10.4 µg/mL | IC50 (pseudovirus neutralization) [28]: 0.025 µg/mL | IC50 (pseudovirus neutralization) [29]: 14.7 µg/mL | IC50 (pseudovirus neutralization) [30]: > 50 µg/mL | IC50 (pseudovirus neutralization) [31]: 3.48 µg/mL | IC50 (pseudovirus neutralization) [32]: 2.51 µg/mL | IC50 (pseudovirus neutralization) [33]: > 50 µg/mL | IC50 (pseudovirus neutralization) [34]: 0.065 µg/mL | IC50 (pseudovirus neutralization) [35]: 0.111 µg/mL | IC50 (pseudovirus neutralization) [36]: 10 µg/mL | IC50 (pseudovirus neutralization) [37]: > 50 µg/mL | IC50 (pseudovirus neutralization) [38]: 34.3 µg/mL | IC50 (pseudovirus neutralization) [39]: 0.224 µg/mL | IC50 (pseudovirus neutralization) [40]: 0.41 µg/mL | IC50 (pseudovirus neutralization) [41]: 0.721 µg/mL | IC50 (pseudovirus neutralization) [42]: 0.03 µg/mL | IC50 (pseudovirus neutralization) [43]: 0.361 µg/mL | IC50 (pseudovirus neutralization) [44]: 13.6 µg/mL | IC50 (pseudovirus neutralization) [45]: 0.228 µg/mL | IC50 (pseudovirus neutralization) [46]: 3.32 µg/mL | IC50 (pseudovirus neutralization) [47]: 0.113 µg/mL | IC50 (pseudovirus neutralization) [48]: 0.402 µg/mL | IC50 (pseudovirus neutralization) [49]: 0.009 µg/mL | IC50 (pseudovirus neutralization) [50]: 1.76 µg/mL | IC50 (pseudovirus neutralization) [51]: 17.5 µg/mL | IC50 (pseudovirus neutralization) [52]: 0.286 µg/mL | IC50 (pseudovirus neutralization) [53]: 1.02 µg/mL | IC50 (pseudovirus neutralization) [54]: 0.816 µg/mL | IC50 (pseudovirus neutralization) [55]: 8.04 µg/mL | IC50 (pseudovirus neutralization) [56]: 0.009 µg/mL | IC50 (pseudovirus neutralization) [57]: 5.88 µg/mL | IC50 (pseudovirus neutralization) [58]: 8.01 µg/mL

PGT-142 (4995_E20) (antibody)
IC50 (pseudovirus neutralization) [1]: 0.002 µg/mL | IC50 (pseudovirus neutralization) [2]: 0.05 µg/mL | IC50 (pseudovirus neutralization) [3]: 0.557 µg/mL | IC50 (pseudovirus neutralization) [4]: > 50 µg/mL | IC50 (pseudovirus neutralization) [5]: 0.006 µg/mL | IC50 (pseudovirus neutralization) [6]: 31.5 µg/mL | IC50 (pseudovirus neutralization) [7]: > 50 µg/mL | IC50 (pseudovirus neutralization) [8]: 0.069 µg/mL | IC50 (pseudovirus neutralization) [9]: 1.78 µg/mL | IC50 (pseudovirus neutralization) [10]: > 50 µg/mL | IC50 (pseudovirus neutralization) [11]: 0.014 µg/mL | IC50 (pseudovirus neutralization) [12]: 0.19 µg/mL | IC50 (pseudovirus neutralization) [13]: > 50 µg/mL | IC50 (pseudovirus neutralization) [14]: > 50 µg/mL | IC50 (pseudovirus neutralization) [15]: > 50 µg/mL | IC50 (pseudovirus neutralization) [16]: > 50 µg/mL | IC50 (pseudovirus neutralization) [17]: > 50 µg/mL | IC50 (pseudovirus neutralization) [18]: 0.001 µg/mL | IC50 (pseudovirus neutralization) [19]: > 50 µg/mL | IC50 (pseudovirus neutralization) [20]: > 50 µg/mL | IC50 (pseudovirus neutralization) [21]: 6.7 µg/mL | IC50 (pseudovirus neutralization) [22]: 0.08 µg/mL | IC50 (pseudovirus neutralization) [23]: > 50 µg/mL | IC50 (pseudovirus neutralization) [24]: > 50 µg/mL | IC50 (pseudovirus neutralization) [25]: > 50 µg/mL | IC50 (pseudovirus neutralization) [26]: > 50 µg/mL | IC50 (pseudovirus neutralization) [27]: 1.15 µg/mL | IC50 (pseudovirus neutralization) [28]: 0.174 µg/mL | IC50 (pseudovirus neutralization) [29]: > 50 µg/mL | IC50 (pseudovirus neutralization) [30]: > 50 µg/mL | IC50 (pseudovirus neutralization) [31]: 0.221 µg/mL | IC50 (pseudovirus neutralization) [32]: 0.005 µg/mL | IC50 (pseudovirus neutralization) [33]: > 50 µg/mL | IC50 (pseudovirus neutralization) [34]: > 50 µg/mL | IC50 (pseudovirus neutralization) [35]: 0.155 µg/mL | IC50 (pseudovirus neutralization) [36]: > 50 µg/mL | IC50 (pseudovirus neutralization) [37]: > 50 µg/mL | IC50 (pseudovirus neutralization) [38]: > 50 µg/mL | IC50 (pseudovirus neutralization) [39]: > 50 µg/mL | IC50 (pseudovirus neutralization) [40]: 12.5 µg/mL | IC50 (pseudovirus neutralization) [41]: > 50 µg/mL | IC50 (pseudovirus neutralization) [42]: 0.192 µg/mL | IC50 (pseudovirus neutralization) [43]: 0.013 µg/mL | IC50 (pseudovirus neutralization) [44]: 12.9 µg/mL | IC50 (pseudovirus neutralization) [45]: 0.124 µg/mL | IC50 (pseudovirus neutralization) [46]: > 50 µg/mL | IC50 (pseudovirus neutralization) [47]: > 50 µg/mL | IC50 (pseudovirus neutralization) [48]: 0.023 µg/mL | IC50 (pseudovirus neutralization) [49]: 0.001 µg/mL | IC50 (pseudovirus neutralization) [50]: > 50 µg/mL | IC50 (pseudovirus neutralization) [51]: > 50 µg/mL | IC50 (pseudovirus neutralization) [52]: 23.5 µg/mL | IC50 (pseudovirus neutralization) [53]: 0.404 µg/mL | IC50 (pseudovirus neutralization) [54]: 0.824 µg/mL | IC50 (pseudovirus neutralization) [55]: > 50 µg/mL | IC50 (pseudovirus neutralization) [56]: 0.04 µg/mL | IC50 (pseudovirus neutralization) [57]: 0.602 µg/mL | IC50 (pseudovirus neutralization) [58]: 2.75 µg/mL
